{"source": "paper PMC12466997", "about": "“Coming Clean and Avoiding Bubble Trouble–Using Detergents Wisely in the Purification of Membrane Proteins for Cryo-EM Studies” (Biomolecules, 2025)", "proteins": {"B1": {"name": "WzzB^ST (natural protein)", "chain": "MTVDSNTSSGRGNDPEQIDLIELLLQLWRGKMTIIVAVIIAILLAVGYLMIAKEKWTSTAIITQPDAAQVATYTNALNVLYGGNAPKISEVQANFISRFSSAFSALSEVLDNQKEREKLTIEQSVKGQALPLSVSYVSTTAEGAQRRLAEYIQQVDEEVAKELEVDLKDNITLQTKTLQESLETQEVVAQEQKDLRIKQIEEALRYADEAKITQPQIQQTQDVTQDTMFLLGSDALKSMIQNEATRPLVFSPAYYQTKQTLLDIKNLKVTADTVHVYRYVMKPTLPVRRDSPKTAITLVLAVLLGGMIGAGIVLGRNALRSYKPKAL", "notes": "WzzB^ST, bacterial inner membrane polysaccharide copolymerase (O-antigen chain length regulator); the AlphaFold2 model AF-Q04866-F1 of the full-length protein was fitted into the map; periplasmic domain residues 55-289, TM residues 20-54 and 289-319; source: extraction and purification as previously described [65]; purified, in 20 mM Tris pH 7.5, 150 mM NaCl, 0.025% DDM; copies: 12"}, "B2": {"name": "Methanocaldococcus jannaschii CorA (natural protein, UniProt Q58439 1-317, looked up)", "chain": "MITVIAIAKDGSIVEPKLDEISFEDYRLIWIDCYDPKDEELYKLSKKIGISVSDLQIGLDEQEIPRVEEDEDFYLIIYKAPLFEEDITTTSLGIYIKNNLLLTIHSDKIKAIGRLHKLISTKKPRIVFERGIGFLLYHILNEITRSYSRILMNLEDELEELEDKLLAGYDREVMEKILGLRKTLVYFHKSLIANRDVLVLLKRKYLPITTKEDRENFEDLYYDTLQLIDMSATYREVLTSMMDITLSLENIKMNQIMKILTMVTTIFAVPMWITGIYGMNFSYLPLANNPQGFWLVMALMVVIIMIFVYIFRRSGWI", "notes": "CorA magnesium channel (divalent metal ion transporter) of Methanocaldococcus jannaschii, E. coli codon-optimised, in pET15b; The HA tag is said to precede MjCorA; the His-tag was removed by thrombin; also called MjCorA; McCorA"}}, "key": {"[1]": {"target": "the molecule itself", "experiment": "cryo-EM structure; WzzB^ST at 10 mg/mL in 20 mM Tris pH 7.5, 150 mM NaCl, 0.025% DDM; single-particle analysis in RELION 5, ~4.2 Å, C6 ring of dimers; AlphaFold2 model fitted and refined"}, "[2]": {"target": "the molecule itself", "experiment": "cryo-EM 2D class averages; WzzB^ST in DDM; 2D classes and an unmasked 3D reconstruction; smaller oligomer and end-to-end pseudo-D-symmetrical pairs of complexes"}, "[3]": {"target": "the molecule itself", "experiment": "cryo-EM structure; MjCorA at 2 mg/mL in 50 mM Tris/HCl pH 8.0, 200 mM NaCl, DDM; initial 3D classification of ~550,000 particles, binned x4, resolution limited to ~6 Å"}}}
{"protein": "B1", "values": [{"measurement": "stoichiometry N", "setting": "[1]", "value": 12}, {"measurement": "stoichiometry N", "setting": "[2]", "value": "~4"}]}
{"protein": "B2", "values": [{"measurement": "stoichiometry N", "setting": "[3]", "value": 5}]}
